Test: yeast display, Sf9 membrane polyspecificity reagent, FACS + sequencing; frameworks hold sequencing errors
How it was run: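 Nanobodies came from a synthetic yeast display library in Saccharomyces cerevisiae BJ5465, induced with galactose for 36–48 hours and stained for 1 hour at 4 °C with 10% biotinylated, detergent-solubilized Sf9 membrane reagent. Cells were enriched on streptavidin microbeads and then FACS-sorted, with low and high (top ~1%) gates set on anti-HA fluorescence for expression and streptavidin fluorescence for reagent binding. Each polyreactivity label reflects the gate a clone came from. Genes were amplified by colony PCR, sequenced by MiSeq 2 × 250 and filtered by CDR length.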

Row | Sequence | polyreactivity (PSR sort gate)
1 | QVQLVESGGGLVQAGGSLRLSCAASGRTFYSYAMGWYRQAPGKERELVAAISGRGGRTYYADSVKGRFTISRDNAKNTVYLQMNSLKPEDTAVYYCAKGGYAIRYYGFDYWGQGTQVTVSS | high polyreactivity
2 | QVQLVESGGGLVQAGGSLRLSCAASGRTFYSYAMGWYRQAPGKERELVAAISKRGTSTYYADSVKGRFTISRDNAKNTVYLQMNSLKPEDTAVYYCAAAYRGREVEYNSWGQGTQVTVSS | high polyreactivity
3 | QVQLVESGGGLVQAGGSLRLSCAASGRTFYSYAMGWYRQAPGKERELVAAITSGDSTNYADSVKGRFTISRDNAKNTVYLQMNSLKPEDTAVYYCAAEYSGWYWYQHYNYWGQGTQVTVSS | high polyreactivity
4 | QVQLVESGGGLVQAGGSLRLSCAASGRTFYSYVMGWYRQAPGKEREVVAAIPRSGGSTNYADSVKGRFTISRDNAKNTVYFQMHSRKPEDTAVYYCASRAGRTLRTHYDYWGQGTQGTVSS | high polyreactivity
5 | QVQLVESGGGLVQAGGSLRLSCAASGRTFYTNAMGWYRQAPGKERELVAAITGDGTSTYYADSVKGRFTISRDNAKNTVYLEMNSLKPEDTAVYYCNATLPDYWPYYYYQGGDDYWGQGTQVTVSS | low polyreactivity
6 | QVQLVESGGGLVQAGGSLRLSCAASGRTFYTNAMGWYRQAPGKERELVAGISWGDGNTYYADSVKGRFTISRDNAKNTVYLQMNSLKPEDTAVYYCAVTYIILWSYSHTEFDYWGQGNQVTVSS | low polyreactivity
7 | QVQLVESGGGLVQAGGSLRLSCAASGRTFYTNAMGWYRQAPGKERELVAVISRGGTTYYADSVKGRFTISRDNEKNTVYIQMNSLKPEDTAFYYCAIQSPSGDSSSQMGSWGQGTQVTVSS | low polyreactivity
8 | QVQLVESGGGLVQAGGSLRLSCAASGRTFYTNGMGWYRQAPGKEREFVAGITYRGGGTYYADSVKGRFTISRDNAKNTVYLQMNSLKPEDTAVYYCNTRWILGRRFYYWGQGTQVTVSS | high polyreactivity
9 | QVQLVESGGGLVQAGGSLRLSCAASGRTFYTYAMGWNRQAPGKEREFVAAITGSGGSTYYADSVKWRFTISRDNAKNTVYLQMTSLKPDDRAVYYCNAGSPGDVWYYYWGQGTQVTVSS | low polyreactivity
10 | QVQLVESGGGLVQAGGSLRLSCAASGRTFYTYAMGWYRQAPGKERELVAAISSDGSTYYADSVKGRFTISRDNAKNTVYLQMNSLKPEDTAVYYCAADYSPWYWGYTYYYWGQGTQVTVSS | high polyreactivity
11 | QVQLVESGGGLVQAGGSLRLSCAASGRTFYVNAMGWYRQAPGKERELVAAINTIGGRTYYADSVKGRFTISRDNAKNTVYLQMNSLKTEDTAVYYCAARQVSRWGYDYWGQGTQVTVSS | high polyreactivity
12 | QVQLVESGGGLVQAGGSLRLSCAASGRTFYVYAMGWYRQAPGKERELVAAISWGGGSTYYADSVKGRFTISRDNAKNTVYLQMNSLKPEDTAVYYFAAESWTSGTNVPVWYYGYSWGQGTQVTVSS | low polyreactivity
13 | QVQLVESGGGLVQAGGSLRLSCAASGRTFYVYAMGWYRQAPGKERELVAAISWRGGSTYYADSVKGRFTISRDNAKNTVYLQMNSLKPEDTAVYYCATAGGDWYGVDYWGQGTQVTVSS | low polyreactivity
14 | QVQLVESGGGLVQAGGSLRLSCAASGRTFYVYAMGWYRQAPGKERELVAAITASGGSTYYADSVKGRFTLSRDNAKNTVYLQMNSLKPEDTAVYYCAARVVTLVRGVGYNYWGQGTQVTVSS | high polyreactivity
15 | QVQLVESGGGLVQAGGSLRLSCAASGRTFYVYAMGWYRQAPGKERELVAAITYTGGDTYYADSVKGRFTISRDNAKNTVYLQMNSLKPEDTAVYYCAADFGPYYRFDYWGQGTQVTVSS | low polyreactivity
16 | QVQLVESGGGLVQAGGSLRLSCAASGRTFYVYAMGWYRQAPGKERELVATITSRGGRTYYADSVKGRFTISRDNAKNTVYLQMNSLKPEDTAVDYCNAAWWKVSYVRQKYFYWGQGTQVTVSS | high polyreactivity
17 | QVQLVESGGGLVQAGGSLRLSCAASGRTFYVYAMGWYRQAPGKVSELVAAISASGGRTYYADSVKGGFTISRDNAKNTVYLQMNSLKPEDTAVYYCAAEGRRGGKDYDYWGQGTQVTVSS | high polyreactivity
